Biological target: RAC1^P29S, purified (human, UniProt P63000 1-192, P29S)
Assay: stopped-flow fluorimetry; mGppNHp-bound RAC1 with varying concentrations of His-IQGAP1 C794; kon, koff, Kd = koff/kon
Conditions: both partners purified

B1: His-IQGAP1 C794 (C-terminal 794 amino acids of IQ motif-containing GTPase-activating protein 1) (domain or fragment)
chain: PPMVVVRKFVHLLDQSDQDFQEELDLMKMREEVITLIRSNQQLENDLNLMDIKIGLLVKNKITLQDVVSHSKKLTKKNKEQLSDMMMINKQKGGLKALSKEKREKLEAYQHLFYLLQTNPTYLAKLIFQMPQNKSTKFMDSVIFTLYNYASNQREEYLLLRLFKTALQEEIKSKVDQIQEIVTGNPTVIKMVVSFNRGARGQNALRQILAPVVKEIMDDKSLNIKTDPVDIYKSWVNQMESQTGEASKLPYDVTPEQALAHEEVKTRLDSSIRNMRAVTDKFLSAIVSSVDKIPYGMRFIAKVLKDSLHEKFPDAGEDELLKIIGNLLYYRYMNPAIVAPDAFDIIDLSAGGQLTTDQRRNLGSIAKMLQHAASNKMFLGDNAHLSIINEYLSQSYQKFRRFFQTACDVPELQDKFNVDEYSDLVTLTKPVIYISIGEIINTHTLLLDHQDAIAPEHNDPIHELLDDLGEVPTIESLIGESSGNLNDPNKEALAKTEVSLTLTNKFDVPGDENAEMDARTILLNTKRLIVDVIRFQPGETLTEILETPATSEQEAEHQRAMQRRAIRDAKTPDKMKKSKSVKEDSNLTLQEKKEKIQTGLKKLTELGTVDPKNKYQELINDIARDIRNQRRYRQRRKAELVKLQQTYAALNSKATFYGEQVDYYKSYIKTCLDNLASKGKVSKKPREMKGKKSKKISLKYTAARLHEKGVLLEIEDLQVNQFKNVIFEISPTEEVGDFEVKAKFMGVQMETFMLHYQDLLQLQYEGVAVMKLFDRAKVNVNLLIFLLNKKFYGK
notes: neither is stated here
- fold higher binding affinity than that of PAK1 for RAC1^P29S: 30 fold
